Paper PMC3567105, “Analysis of the Enzymatic Properties of a Broad Family of Alanine Aminotransferases” (PLoS ONE, 2013)

B1: AtAlaAT1 (Arabidopsis thaliana) (protein)
chain: SASDSSSSLPVTLDTINPKVIKCEYAVRGEIVNIAQKLQEDLKTNKDAYPFDEIIYCNIGNPQSLGQQPITFFREVLALCSYTALLDESATHGLFSSDSIERAWKILDQIPGRATGAYSHSQGIKGLRDAIADGIEARDGFPADPNDIFMTDGASPGVHMMMQLLITSEKDGILCPIPQYPLYSASIALHGGTLVPYYLDEASGWGLEISELKKQLEDARSKGITVRALAVINPGNPTGQVLSEENQRDVVKFCKQEGLVLLADEVYQENVYVPDKKFHSFKKVARSMGYGEKDLALVSFQSVSKGYYGECGKRGGYMEVTGFTSDVREQIYKMASVNLCSNISGQILASLIMSPPKPGDDSYESYIAEKDGILSSLARRAKTLEEALNKLEGVTCNRAEGAMYLFPCLHLPQKAIAAAEAEKTAPDNFYCKRLLKATGIVVVPGSGFRQVPGTWHFRCTILPQEDKIPAIVDRLTAFHQSFMDEFRD
notes: untagged, pBAD18-Kan, E. coli TR61, desalted whole-protein extract, not purified
B2: AtAlaAT2 (Arabidopsis thaliana) (protein)
chain: SSTSEMSASDSTSSLPVTLDSINPKVLKCEYAVRGEIVNIAQKLQEDLKTNKDAYPFDEIIYCNIGNPQSLGQLPIKFFREVLALCDHASLLDESETHGLFSTDSIDRAWRILDHIPGRATGAYSHSQGIKGLRDVIAAGIEARDGFPADPNDIFLTDGASPAVHMMMQLLLSSEKDGILSPIPQYPLYSASIALHGGSLVPYYLDEATGWGLEISDLKKQLEEARSKGISVRALVVINPGNPTGQVLAEENQRDIVNFCKQEGLVLLADEVYQENVYVPDKKFHSFKKVARSLGYGEKDISLVSFQSVSKGYYGECGKRGGYMEVTGFTSDVREQIYKMASVNLCSNISGQILASLVMSPPKPGDDSYDSYMAERDGILSSMAKRAKTLEDALNSLEGVTCNRAEGAMYLFPRINLPQKAIEAAEAEKTAPDAFYCKRLLNATGVVVVPGSGFGQVPGTWHFRCTILPQEDKIPAIVNRLTEFHKSFMDEFRN
notes: as for B1
B3: AtGGAT1 (Arabidopsis thaliana) (protein)
chain: MALKALDYDTLNENVKKCQYAVRGELYLRASELQKEGKKIIFTNVGNPHALGQKPLTFPRQVVALCQAPFLLDDPNVGMLFPADAIARAKHYLSLTSGGLGAYSDSRGLPGVRKEVAEFIQRRDGYPSDPELIFLTDGASKGVMQILNCVIRGNGDGILVPVPQYPLYSATISLLGGTLVPYYLDESENWGLDVANLRQSVAQARSQGITVRAMVIINPGNPTGQCLSEANIREILKFCYNEKLVLLGDEVYQQNIYQDERPFISSKKVLMEMGSPFSKEVQLVSFHTVSKGYWGECGQRGGYFEMTNLPPRVVEEIYKVASIALSPNVSAQIFMGLMVNPPKPGDISYDQFARESKGILESLRRRARLMTDGFNSCKNVVCNFTEGAMYSFPQIRLPTGALQAAKQAGKVPDVFYCLKLLEATGISTVPGSGFGQKEGVFHLRTTILPAEDEMPEIMDSFKKFNDEFMTQYDNNFGYSKM
notes: as for B1
B4: AtGGAT2 (Arabidopsis thaliana) (protein)
chain: MSLKALDYESLNENVKNCQYAVRGELYLRASELQKEGKKIIFTNVGNPHALGQKPLTFPRQVVSLCQAPFLLDDPNVGMIFPADAIARAKHYLSLTSGGLGAYSDSRGLPGVRKEVAEFIERRDGYPSDPELIFLTDGASKGVMQILNCVIRGQKDGILVPVPQYPLYSATISLLGGTLVPYYLEESENWGLDVNNLRQSVAQARSQGITVRAMVIINPGNPTGQCLSEANIREILRFCCDERLVLLGDEVYQQNIYQDERPFISSKKVLMDMGAPISKEVQLISFHTVSKGYWGECGQRGGYFEMTNIPPRTVEEIYKVASIALSPNVSAQIFMGLMVSPPKPGDISYDQFVRESKGILESLRRRARMMTDGFNSCKNVVCNFTEGAMYSFPQIKLPSKAIQAAKQAGKVPDVFYCLKLLEATGISTVPGSGFGQKEGVFHLRTTILPAEEEMPEIMDSFKKFNDEFMSQYADNFGYSRM
notes: as for B1
B5: HvAlaAT (Hordeum vulgare) (protein)
chain: MAATVAVDNLNPKVLKCEYAVRGEIVIHAQRLQEQLKTQPGSLPFDEILYCNIGNPQSLGQQPVTFFREVLALCDHPDLLQREEIKTLFSADSISRAKQILAMIPGRATGAYSHSQGIKGLRDAIASGIASRDGFPANADDIFLTDGASPGVHLMMQLLIRNEKDGILVPIPQYPLYSASIALHGGALVPYYLNESTGWGLETSDVKKQLEDARSRGINVRALVVINPGNPTGQVLAEENQYDIVKFCKNEGLVLLADEVYQENIYVDNKKFHSFKKIVRSLGYGEEDLPLVSYQSVSKGYYGECGKRGGYFEITGFSAPVREQIYKIASVNLCSNITGQILASLVMNPPKASDESYASYKAEKDGILASLARRAKALEHAFNKLEGITCNEAEGAMYVFPQICLPQKAIEAAKAANKAPDAFYALRLLESTGIVVVPGSGFGQVPGTWHFRCTILPQEDKIPAVISRFTVFHEAFMSEYRD
notes: untagged, from cDNA, pBAD18-Kan, E. coli TR61, desalted whole-protein extract, not purified
B6: MmAlaAT1 (Mus musculus) (protein)
chain: ASQRNDRIQASRNGLKGKVLTLDTMNPCVRRVEYAVRGPIVQRALELEQELRQGVKKPFTEVIRANIGDAQAMGQRPITFFRQVLALCVYPNLLSSPDFPEDAKRRAERILQACGGHSLGAYSISSGIQPIREDVAQYIERRDGGIPADPNNIFLSTGASDAIVTMLKLLVAGEGRARTGVLIPIPQYPLYSAALAELDAVQVDYYLDEERAWALDIAELRRALCQARDRCCPRVLCVINPGNPTGQVQTRECIEAVIRFAFEEGLFLMADEVYQDNVYAEGSQFHSFKKVLTEMGPPYATQQELASFHSVSKGYMGECGFRGGYVEVVNMDAEVQKQMAKLMSVRLCPPVPGQALMGMVVSPPTPSEPSFKQFQAERQEVLAELAAKAKLTEQVFNEAPGIRCNPVQGAMYSFPQIQLPLKAVQRAQDLGLAPDMFFCLCLLEETGICVVPGSGFGQQEGTYHFRMTILPPMEKLRVLLEKLRHFHAKFTHEYS
notes: as for B1
B7: ScAlaAT1 (Saccharomyces cerevisiae S288C) (protein)
chain: SSSWIVAQNHRRSLSGQSSLNDLRHLNRFPHHTLKTSNNEFYPAEQLTLEDVNENVLKAKYAVRGAIPMRAEELKAQLEKDPQSLPFDRIINANIGNPQQLQQKPLTYYRQVLSLLQYPELLNQNEQQLVDSKLFKLDAIKRAKSLMEDIGGSVGAYSSSQGVEGIRKSVAEFITKRDEGEISYPEDIFLTAGASAAVNYLLSIFCRGPETGVLIPIPQYPLYTATLALNNSQALPYYLDENSGWSTNPEEIETVVKEAIQNEIKPTVLVVINPGNPTGAVLSPESIAQIFEVAAKYGTVVIADEVYQENIFPGTKFHSMKKILRHLQREHPGKFDNVQLASLHSTSKGVSGECGQRGGYMELTGFSHEMRQVILKLASISLCPVVTGQALVDLMVRPPVEGEESFESDQAERNSIHEKLITRAMTLYETFNSLEGIECQKPQGAMYLFPKIDLPFKAVQEARHLELTPDEFYCKKLLESTGICTVPGSGFGQEPGTYHLRTTFLAPGLEWIKKWESFHKEFFDQYRD
notes: as for B1
B8: PfAlaAT (Pyrococcus furiosus DSM 3638) (protein)
chain: MIRASKRALSVEYAIRDVVLPARELEKKGIKVIRLNIGDPVKFDFQPPEHMKEAYCKAIKEGHNYYGDSEGLPELRKAIVEREKRKNGVDITPDDVRVTAAVTEALQLIFGALLDPGDEILVPGPSYPPYTGLVKFYGGKPVEYRTIEEEDWQPDIDDIRKKITDRTKAIAVINPNNPTGALYDKKTLEEILNIAGEYEIPVISDEIYDLMTYEGEHISPGSLTKDVPVIVMNGLSKVYFATGWRLGYMYFVDPENKLSEVREAIDRLARIRLCPNTPAQFAAIAGLTGPMDYLKEYMKKLKERRDYIYKRLNEIPGISTTKPQGAFYIFPKIEVGPWKNDKEFVLDVLHNAHVLFVHGSGFGEYGAGHFRAVFLPPIEILEEAMDRFEKFMKERLKE
notes: as for B1

How the values were obtained:
Assay in all cases: cells, lysate or membranes
[1] = substrate: CC(=O)C(=O)O; assay type: biochemical, Arabidopsis thaliana; conditions: 50 mM glutamate, 100 mM NH4Cl, 0.1 M Tris-HCl pH 8.0, 20°C, 10 µM PLP, unpurified extract
[2] = substrate: O=C(O)CCC(=O)C(=O)O; assay type: biochemical, Arabidopsis thaliana; conditions: 100 mM alanine, 0.1 M Tris-HCl pH 8.0, 20°C, 10 µM PLP, unpurified extract
[3] = substrate: C[C@H](N)C(=O)O; conditions: 10 mM 2-oxoglutarate, 0.1 M Tris-HCl pH 8.0, 20°C, 10 µM PLP, unpurified extract
[4] = substrate: N[C@@H](CCC(=O)O)C(=O)O; assay type: biochemical, Arabidopsis thaliana; conditions: 10 mM pyruvate, 100 mM NH4Cl, 0.1 M Tris-HCl pH 8.0, 20°C, 10 µM PLP, unpurified extract
[5] = substrate: CC(=O)C(=O)O; assay type: biochemical, Hordeum vulgare; conditions: 50 mM glutamate, 100 mM NH4Cl, 0.1 M Tris-HCl pH 8.0, 20°C, 10 µM PLP, unpurified extract
[6] = substrate: O=C(O)CCC(=O)C(=O)O; assay type: biochemical, Hordeum vulgare; conditions: 100 mM alanine, 0.1 M Tris-HCl pH 8.0, 20°C, 10 µM PLP, unpurified extract
[7] = substrate: N[C@@H](CCC(=O)O)C(=O)O; assay type: biochemical, Mus musculus; conditions: 10 mM pyruvate, 100 mM NH4Cl, 0.1 M Tris-HCl pH 8.0, 20°C, 10 µM PLP, unpurified extract
[8] = substrate: O=C(O)CCC(=O)C(=O)O; assay type: biochemical, Mus musculus; conditions: 100 mM alanine, 0.1 M Tris-HCl pH 8.0, 20°C, 10 µM PLP, unpurified extract
[9] = substrate: O=C(O)CCC(=O)C(=O)O; assay type: biochemical, Saccharomyces cerevisiae; conditions: 100 mM alanine, 0.1 M Tris-HCl pH 8.0, 20°C, 10 µM PLP, unpurified extract
[10] = substrate: N[C@@H](CCC(=O)O)C(=O)O; assay type: biochemical, Pyrococcus furiosus; conditions: 10 mM pyruvate, 100 mM NH4Cl, 0.1 M Tris-HCl pH 8.0, 20°C, 10 µM PLP, unpurified extract
[11] = substrate: O=C(O)CCC(=O)C(=O)O; assay type: biochemical, Pyrococcus furiosus; conditions: 100 mM alanine, 0.1 M Tris-HCl pH 8.0, 20°C, 10 µM PLP, unpurified extract

Protein	Km [1] [µM]	Km [2] [µM]	Km [3] [µM]	other results
B1	100 ± 0	100 ± 0	2400 ± 500	
B2	5100 ± 900	1000 ± 100		Km [4]: 4900 ± 1100 µM
B3	600 ± 100	200 ± 100	1900 ± 500	
B4	18500 ± 2700	8800 ± 1800	1200 ± 100	
B5				Km [5]: 100 ± 0 µM; Km [6]: 200 ± 0 µM
B6				Km [7]: 13000 ± 2400 µM; Km [8]: 100 ± 100 µM
B7			300 ± 100	Km [9]: 500 ± 100 µM
B8				Km [10]: 900 ± 100 µM; Km [11]: 20 ± 0 µM
